Measurements: patent US20110294738A1, “PTHR1 RECEPTOR COMPOUNDS” (priority 2008, published 2011)
Where “and” joins values, the source holds several entries; their conditions need not be identical. Equal entries are not always repeated. One block for each binder: values may come before it. * marks the point of attachment. Palmitoyl = CCCCCCCCCCCCCCCC(=O)*

Target: PTHR1 receptor
Sequence (P25961 whole entry): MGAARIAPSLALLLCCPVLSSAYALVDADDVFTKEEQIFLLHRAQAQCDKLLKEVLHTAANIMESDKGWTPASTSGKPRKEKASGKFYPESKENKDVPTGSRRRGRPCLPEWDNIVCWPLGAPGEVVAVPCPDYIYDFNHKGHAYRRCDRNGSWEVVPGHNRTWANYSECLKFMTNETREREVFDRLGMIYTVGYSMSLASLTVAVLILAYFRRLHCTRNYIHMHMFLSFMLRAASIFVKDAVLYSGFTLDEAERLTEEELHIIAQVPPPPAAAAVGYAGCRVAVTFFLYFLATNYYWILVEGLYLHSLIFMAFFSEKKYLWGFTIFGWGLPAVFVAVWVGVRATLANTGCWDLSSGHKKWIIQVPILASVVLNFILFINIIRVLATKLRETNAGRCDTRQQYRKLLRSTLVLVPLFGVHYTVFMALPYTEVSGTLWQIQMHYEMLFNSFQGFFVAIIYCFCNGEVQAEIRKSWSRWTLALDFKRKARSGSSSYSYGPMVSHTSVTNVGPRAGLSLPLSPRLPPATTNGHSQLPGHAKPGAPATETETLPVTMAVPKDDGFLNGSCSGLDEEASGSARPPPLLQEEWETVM

B1: Compound 9 (peptide)
peptide: Palmitoyl-LAYFRRLHSTRNYI-NH2
SMILES: CCCCCCCCCCCCCCCC(=O)N[C@@H](CC(C)C)C(=O)N[C@@H](C)C(=O)N[C@@H](Cc1ccc(O)cc1)C(=O)N[C@@H](Cc1ccccc1)C(=O)N[C@@H](CCCNC(=N)N)C(=O)N[C@@H](CCCNC(=N)N)C(=O)N[C@@H](CC(C)C)C(=O)N[C@@H](Cc1c[nH]cn1)C(=O)N[C@@H](CO)C(=O)N[C@H](C(=O)N[C@@H](CCCNC(=N)N)C(=O)N[C@@H](CC(N)=O)C(=O)N[C@@H](Cc1ccc(O)cc1)C(=O)N[C@H](C(N)=O)[C@@H](C)CC)[C@@H](C)O
Fold Shift of EC50: 1.1 fold
Inhibition of Maximal Response: 12.7%

B3: Compound 33 (peptide)
peptide: Palmitoyl-HSLIFMAFFSEKKYL-NH2
SMILES: CCCCCCCCCCCCCCCC(=O)N[C@@H](Cc1c[nH]cn1)C(=O)N[C@@H](CO)C(=O)N[C@@H](CC(C)C)C(=O)N[C@H](C(=O)N[C@@H](Cc1ccccc1)C(=O)N[C@@H](CCSC)C(=O)N[C@@H](C)C(=O)N[C@@H](Cc1ccccc1)C(=O)N[C@@H](Cc1ccccc1)C(=O)N[C@@H](CO)C(=O)N[C@@H](CCC(=O)O)C(=O)N[C@@H](CCCCN)C(=O)N[C@@H](CCCCN)C(=O)N[C@@H](Cc1ccc(O)cc1)C(=O)N[C@@H](CC(C)C)C(N)=O)[C@@H](C)CC
Fold Shift of EC50: 1.1 fold
Inhibition of Maximal Response: 27.5%

B5: Compound 37 (peptide)
peptide: Palmitoyl-LHSLIFMAFFSEKKYLWGFT-NH2
SMILES: CCCCCCCCCCCCCCCC(=O)N[C@@H](CC(C)C)C(=O)N[C@@H](Cc1c[nH]cn1)C(=O)N[C@@H](CO)C(=O)N[C@@H](CC(C)C)C(=O)N[C@H](C(=O)N[C@@H](Cc1ccccc1)C(=O)N[C@@H](CCSC)C(=O)N[C@@H](C)C(=O)N[C@@H](Cc1ccccc1)C(=O)N[C@@H](Cc1ccccc1)C(=O)N[C@@H](CO)C(=O)N[C@@H](CCC(=O)O)C(=O)N[C@@H](CCCCN)C(=O)N[C@@H](CCCCN)C(=O)N[C@@H](Cc1ccc(O)cc1)C(=O)N[C@@H](CC(C)C)C(=O)N[C@@H](Cc1c[nH]c2ccccc12)C(=O)NCC(=O)N[C@@H](Cc1ccccc1)C(=O)N[C@H](C(N)=O)[C@@H](C)O)[C@@H](C)CC
Fold Shift of EC50: 1.1 fold
Inhibition of Maximal Response: 35.6%

B6: Compound 7 (peptide)
peptide: Palmitoyl-AYFRRLHSTRNYIH-NH2
SMILES: CCCCCCCCCCCCCCCC(=O)N[C@@H](C)C(=O)N[C@@H](Cc1ccc(O)cc1)C(=O)N[C@@H](Cc1ccccc1)C(=O)N[C@@H](CCCNC(=N)N)C(=O)N[C@@H](CCCNC(=N)N)C(=O)N[C@@H](CC(C)C)C(=O)N[C@@H](Cc1c[nH]cn1)C(=O)N[C@@H](CO)C(=O)N[C@H](C(=O)N[C@@H](CCCNC(=N)N)C(=O)N[C@@H](CC(N)=O)C(=O)N[C@@H](Cc1ccc(O)cc1)C(=O)N[C@H](C(=O)N[C@@H](Cc1c[nH]cn1)C(N)=O)[C@@H](C)CC)[C@@H](C)O
Fold Shift of EC50: 1.2 fold
Inhibition of Maximal Response: 36%

B7: Compound 46 (peptide)
peptide: Palmitoyl-VLATKLRETNAGRSDTRQQ-NH2
SMILES: CCCCCCCCCCCCCCCC(=O)N[C@H](C(=O)N[C@@H](CC(C)C)C(=O)N[C@@H](C)C(=O)N[C@H](C(=O)N[C@@H](CCCCN)C(=O)N[C@@H](CC(C)C)C(=O)N[C@@H](CCCNC(=N)N)C(=O)N[C@@H](CCC(=O)O)C(=O)N[C@H](C(=O)N[C@@H](CC(N)=O)C(=O)N[C@@H](C)C(=O)NCC(=O)N[C@@H](CCCNC(=N)N)C(=O)N[C@@H](CO)C(=O)N[C@@H](CC(=O)O)C(=O)N[C@H](C(=O)N[C@@H](CCCNC(=N)N)C(=O)N[C@@H](CCC(N)=O)C(=O)N[C@@H](CCC(N)=O)C(N)=O)[C@@H](C)O)[C@@H](C)O)[C@@H](C)O)C(C)C
Fold Shift of EC50: 0.9 fold
Inhibition of Maximal Response: 20.3%

B10: Compound 47 (peptide)
peptide: Palmitoyl-KLRETNAGRSDTRQQRKLL-NH2
SMILES: CCCCCCCCCCCCCCCC(=O)N[C@@H](CCCCN)C(=O)N[C@@H](CC(C)C)C(=O)N[C@@H](CCCNC(=N)N)C(=O)N[C@@H](CCC(=O)O)C(=O)N[C@H](C(=O)N[C@@H](CC(N)=O)C(=O)N[C@@H](C)C(=O)NCC(=O)N[C@@H](CCCNC(=N)N)C(=O)N[C@@H](CO)C(=O)N[C@@H](CC(=O)O)C(=O)N[C@H](C(=O)N[C@@H](CCCNC(=N)N)C(=O)N[C@@H](CCC(N)=O)C(=O)N[C@@H](CCC(N)=O)C(=O)N[C@@H](CCCNC(=N)N)C(=O)N[C@@H](CCCCN)C(=O)N[C@@H](CC(C)C)C(=O)N[C@@H](CC(C)C)C(N)=O)[C@@H](C)O)[C@@H](C)O
Fold Shift of EC50: 2.7 fold
Inhibition of Maximal Response: 8.3%

B11: Compound 45 (peptide)
peptide: Palmitoyl-VRVLATKLRETNAGRSDTR-NH2
SMILES: CCCCCCCCCCCCCCCC(=O)N[C@H](C(=O)N[C@@H](CCCNC(=N)N)C(=O)N[C@H](C(=O)N[C@@H](CC(C)C)C(=O)N[C@@H](C)C(=O)N[C@H](C(=O)N[C@@H](CCCCN)C(=O)N[C@@H](CC(C)C)C(=O)N[C@@H](CCCNC(=N)N)C(=O)N[C@@H](CCC(=O)O)C(=O)N[C@H](C(=O)N[C@@H](CC(N)=O)C(=O)N[C@@H](C)C(=O)NCC(=O)N[C@@H](CCCNC(=N)N)C(=O)N[C@@H](CO)C(=O)N[C@@H](CC(=O)O)C(=O)N[C@H](C(=O)N[C@@H](CCCNC(=N)N)C(N)=O)[C@@H](C)O)[C@@H](C)O)[C@@H](C)O)C(C)C)C(C)C
Fold Shift of EC50: 1.4 fold
Inhibition of Maximal Response: 9.1%

Second part, the binder after the results:

Fold Shift of EC50: 2.1 fold
Inhibition of Maximal Response: 6.4%
B2: Compound 53 (peptide)
peptide: Palmitoyl-KLRETNAGRSDTRQQY-NH2
SMILES: CCCCCCCCCCCCCCCC(=O)N[C@@H](CCCCN)C(=O)N[C@@H](CC(C)C)C(=O)N[C@@H](CCCNC(=N)N)C(=O)N[C@@H](CCC(=O)O)C(=O)N[C@H](C(=O)N[C@@H](CC(N)=O)C(=O)N[C@@H](C)C(=O)NCC(=O)N[C@@H](CCCNC(=N)N)C(=O)N[C@@H](CO)C(=O)N[C@@H](CC(=O)O)C(=O)N[C@H](C(=O)N[C@@H](CCCNC(=N)N)C(=O)N[C@@H](CCC(N)=O)C(=O)N[C@@H](CCC(N)=O)C(=O)N[C@@H](Cc1ccc(O)cc1)C(N)=O)[C@@H](C)O)[C@@H](C)O

Fold Shift of EC50: 11.1 fold
Inhibition of Maximal Response: 1.7%
B4: Compound 52 (peptide)
peptide: Palmitoyl-TNAGRSDTRQQYRKLLKSTL-NH2
SMILES: CCCCCCCCCCCCCCCC(=O)N[C@H](C(=O)N[C@@H](CC(N)=O)C(=O)N[C@@H](C)C(=O)NCC(=O)N[C@@H](CCCNC(=N)N)C(=O)N[C@@H](CO)C(=O)N[C@@H](CC(=O)O)C(=O)N[C@H](C(=O)N[C@@H](CCCNC(=N)N)C(=O)N[C@@H](CCC(N)=O)C(=O)N[C@@H](CCC(N)=O)C(=O)N[C@@H](Cc1ccc(O)cc1)C(=O)N[C@@H](CCCNC(=N)N)C(=O)N[C@@H](CCCCN)C(=O)N[C@@H](CC(C)C)C(=O)N[C@@H](CC(C)C)C(=O)N[C@@H](CCCCN)C(=O)N[C@@H](CO)C(=O)N[C@H](C(=O)N[C@@H](CC(C)C)C(N)=O)[C@@H](C)O)[C@@H](C)O)[C@@H](C)O

Fold Shift of EC50: 7 fold
Inhibition of Maximal Response: -3.3%
B8: Compound 48 (peptide)
peptide: Palmitoyl-RETNAGRSDTRQQRKLLKS-NH2
SMILES: CCCCCCCCCCCCCCCC(=O)N[C@@H](CCCNC(=N)N)C(=O)N[C@@H](CCC(=O)O)C(=O)N[C@H](C(=O)N[C@@H](CC(N)=O)C(=O)N[C@@H](C)C(=O)NCC(=O)N[C@@H](CCCNC(=N)N)C(=O)N[C@@H](CO)C(=O)N[C@@H](CC(=O)O)C(=O)N[C@H](C(=O)N[C@@H](CCCNC(=N)N)C(=O)N[C@@H](CCC(N)=O)C(=O)N[C@@H](CCC(N)=O)C(=O)N[C@@H](CCCNC(=N)N)C(=O)N[C@@H](CCCCN)C(=O)N[C@@H](CC(C)C)C(=O)N[C@@H](CC(C)C)C(=O)N[C@@H](CCCCN)C(=O)N[C@@H](CO)C(N)=O)[C@@H](C)O)[C@@H](C)O

Fold Shift of EC50: 12.4 fold
Inhibition of Maximal Response: -0.015
B9: Compound 51 (peptide)
peptide: Palmitoyl-RETNAGRSDTRQQYRKLLKS-NH2
SMILES: CCCCCCCCCCCCCCCC(=O)N[C@@H](CCCNC(=N)N)C(=O)N[C@@H](CCC(=O)O)C(=O)N[C@H](C(=O)N[C@@H](CC(N)=O)C(=O)N[C@@H](C)C(=O)NCC(=O)N[C@@H](CCCNC(=N)N)C(=O)N[C@@H](CO)C(=O)N[C@@H](CC(=O)O)C(=O)N[C@H](C(=O)N[C@@H](CCCNC(=N)N)C(=O)N[C@@H](CCC(N)=O)C(=O)N[C@@H](CCC(N)=O)C(=O)N[C@@H](Cc1ccc(O)cc1)C(=O)N[C@@H](CCCNC(=N)N)C(=O)N[C@@H](CCCCN)C(=O)N[C@@H](CC(C)C)C(=O)N[C@@H](CC(C)C)C(=O)N[C@@H](CCCCN)C(=O)N[C@@H](CO)C(N)=O)[C@@H](C)O)[C@@H](C)O

Fold Shift of EC50: 1.5 fold and 2.3 fold
B12: Compound 49 (peptide)
peptide: Palmitoyl-TNAGRSDTRQQRKLLKSTL-NH2
SMILES: CCCCCCCCCCCCCCCC(=O)N[C@H](C(=O)N[C@@H](CC(N)=O)C(=O)N[C@@H](C)C(=O)NCC(=O)N[C@@H](CCCNC(=N)N)C(=O)N[C@@H](CO)C(=O)N[C@@H](CC(=O)O)C(=O)N[C@H](C(=O)N[C@@H](CCCNC(=N)N)C(=O)N[C@@H](CCC(N)=O)C(=O)N[C@@H](CCC(N)=O)C(=O)N[C@@H](CCCNC(=N)N)C(=O)N[C@@H](CCCCN)C(=O)N[C@@H](CC(C)C)C(=O)N[C@@H](CC(C)C)C(=O)N[C@@H](CCCCN)C(=O)N[C@@H](CO)C(=O)N[C@H](C(=O)N[C@@H](CC(C)C)C(N)=O)[C@@H](C)O)[C@@H](C)O)[C@@H](C)O
